In assay [1] the target is antigen of ESBA105 (not named in the examples) (UniProt P01375). In words: assay not described.
The target of assay [2] is T1, antigen of ESBA105 (not named in the examples) (UniProt P01375 77-233, limits assumed). In words: assay not described; reference itself.
Assay [3] deals with T1, antigen of ESBA105 (not named in the …). In words: assay not described.

Chain of antigen of ESBA105 (not named in the examples) (UniProt P01375) (P01375 77-233 limits assumed): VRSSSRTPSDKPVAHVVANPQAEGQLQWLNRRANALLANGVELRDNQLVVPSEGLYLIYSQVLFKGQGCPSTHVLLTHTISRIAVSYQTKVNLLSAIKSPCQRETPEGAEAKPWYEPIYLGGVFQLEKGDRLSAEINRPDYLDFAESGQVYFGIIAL
T1 sequence (P01375 77-233 limits assumed): as above

On to ESBA105 VH V103T (scFv), for which the Activity relative to ESBA105 (relative to ESBA105) in assay [1] amounted to 1.2.

Regarding ESBA105_VL V3Q (scFv), the Binding Activity (relative to parental ESBA105) (relative to parental ESBA105) in assay [1] worked out at 1.2.

B1: ESBA105 (scFv)
chain: MADIVMTQSPSSLSASVGDRVTLTCTASQSVSNDVVWYQQRPGKAPKLLIYSAFNRYTGVPSRFSGRGYGTDFTLTISSLQPEDVAVYYCQQDYNSPRTFGQGTKLEVKRGGGGSGGGGSGGGGSSGGGSQVQLVQSGAEVKKPGASVKVSCTASGYTFTHYGMNWVRQAPGKGLEWMGWINTYTGEPTYADKFKDRFTFSLETSASTVYMELTSLTSDDTAVYYCARERGDAMDYWGQGTLVTVSS
As to B1, the “Activity relative to ESBA105” value in assay [2] is 1 relative to ESBA105.

B2: ESBA105_QC15.2 (scFv, V domains shown)
VH: QVQLVQSGAEVKKPGASVKVSCTASGYTFTHYGMNWVRQAPGRGLEWMGWINTYTGEPTYADKFKDRITFSLETSASTVYMELTSLTSDDTAVYYCARERGDAMDYWGQGTLVTVSS
VL: DIVMTQSPSSLSASVGDRVTLTCTASQSVSNDVVWYQQRPGKAPKLLIYSAFNRYTGVPSRFSGRGYGTDFTLTISSLQPEDVAVYYCQQDYNSPRTFGQGTKLEVK
As for B2, in assay [3], the “Binding Activity (relative to parental ESBA105)” value is 1 relative to parental ESBA105.

For the origin of these results see patent publication US20090074780A1 (ESBATECH AN ALCON BIOMEDICAL RESEARCH UNIT, published 2009).
